# The DeepSol protein solubility set
# Assay: soluble on expression in E. coli; label from the status in PepcDB or PDB records
row,Sequence,soluble on expression in E. coli
1,NSKKETVTVGVLQFVSHPALDEIYKGVEEGLKENGYDKGKNLEIIFQNGQADQSKLAIMSQQLVQKKADVLIGIATPAAQALANTTQEIPIILGAITDPVSAGLVKDNQKPGGNITGVSDQSPLSAQMDLLKELIPAAKKIGILYASSEENSRYQVAEAQKAAEAKGLTVKTYAVPSSNEIAQTVQVMTKETDVIYIPTDNTIANAMQTVVGEANRTKTPIIPSVDTMVEQGGLATVGINQHALGVQAGKMAAEVLSGKSQPATTPIYTFNTGDTIINEKQAQKLGITIPAELAKKSKLIN,not soluble
2,CNFRSTETIVNWVNDHFSKIFSQQVDIESGAVSFHPSVHVIEKNESSTIQAVQFKNREQEARHLIEIINSELNRNPEQTIAVLVRTRTQLPEIISLLRQNNIPYQGTDIDLLANLVHLRDVWSLAHALLFPGNRLSWLSILHSPYVGLGLSDIHCIAQYNSRKSIYHNLLHLDKIQDISEEGRIRANFFIQIMNQALLCRSHSRLSDWIADTLKNLHVEKILDKAQLNDLEQLWMLLDQYEKEGRIPDMNEFLNEFNKLYAQQTTPSRLQIMTIHKSKGLEFDTVILPGLGSQANRGESPMLRWLKLPTQDHGNLLLVSPIKSANQDNCPLYDYLDQLDEEKSAYEAQRLLYVAVTRAKSRLYLLDHSAKSYKSS,not soluble
3,MNYQDNSLKSLKLGQKTEYASQYDRTLLQPVPRALNRDGLGITQNQPFTIGADIWTAYEISWLNEKGLPQVAIADIYLDYQSQNLIESKSFKLYLNSFNQSKFADFNAVQQTMQRDLSECAQGDVKVRLNPMAVYDSQKIDHLQGDCIDEQDIEITSYEFNANWLKDCVSDEIVEEKLVSHLLKSNCLITNQPDWGTLHIHYVGKKINQEKLLRYVVSFRQHNEFHEQCVERIFCDLMHYAKPEKLTVYARYTRRGGLDINPFRSNFENLPENLRLARQ,soluble
4,MPTTRHYDIVIIGGGIQGAAVAQAAAALGYNVLVLEKTALAAGTSSRSSKLIHGGLRYLESGQFGLVWESLKERAALLRLAPSLVRLQPFHIPIYDQTSRDTLTIRAGLSLYALLAGLSKGAGFHSIPRRRWGELDGLSTRGLRHVFQYWDAQTDDQALTRAIMHSASSLGVELHCPAEFIHARISGEICEIEFLENNQAYQCTASSLVNAAGPWVSQVAERISPAPPAYPVELVQGTHLILEGSLDKGCYYLESPQDRRAIFALPWKQHILLGTTETVFEGAPDKALPLVSEENYLLGCFRYYFPDHGATVRERFTGLRVLPVSRNNPFGRSRETHLQCDSPESPRIVGIYGGKLTVCRATARKVLHTLRPSLPVRIPKADISQLTLKLPLEHHHHHH,soluble
5,SLTDRLERKLAIAANQDKADLLIKNGQIVDVFQLETFEGDVVIADGEIVAISDPGTYEAHEEVDAKGAFIAPAFIDGHVHIESSMVAPEQFAKVVVPHGVTTVIADPHEIANVAGVQGVEYMLDASEGIPLDVKMMVPSCVPATPFEHSGARLTAEEVAELFRDPRIFGLGEVMDYPAVLTRDQEMMAKLKAAHSEGRIVDGHGAGLDSVALNAYTAAGIGNDHEAVTPEEAKARLQRGMYLLIREGTAAKDFDALMKAITPMNSRRALFVTDDKHLDELVEEGSIDHHVRKAIQIGVNPLQAIQMASLNAAECFKLAKKGAIAPGFTADLLFIEDLQSLAITHVFKNGTCVAKNGKLIVPIRETVQPPQRLLESVNMKLVTKEQLELSLQSDEEAHLIQIQPGSIVTKHIREKVAVKDGVFIPSVARDQLKLVVAERHHKRGTVGVGIVKGFGLTKGAIATTVAHDSHNIVAVGTNDEDLLAAIKELENIQGGMTIVKDGKVLVSLPLTIGGLMSDQSYDVVCEQIKSVDAAIGALGFVGDFNPFLTLSFLALPVIPEIKLTDQGLFDVTSFSFIDQQVYAEETN,soluble
6,MGSDKIHHHHHHMDLWKLYQPGTPAAIVAWGQLGTAHAKTTYGLLRHSRLFKPVCVVAEHEGKMASDFVKPVRYDVPVVSSVEKAKEMGAEVLIIGVSNPGGYLEEQIATLVKKALSLGMDVISGLHFKISQQTEFLKIAHENGTRIIDIRIPPLELDVLRGGIYRKKIKVVGVFGTDCVVGKRTTAVQLWERALEKGIKAGFLATGQTGILIGADAGYVIDAVPADFVSGVVEKAVLKLEKTGKEIVFVEGQGALRHPAYGQVTLGLLYGSNPDVVFLVHDPSRDHFESFPEIPKKPDFEEERRLIETLSNAKVIGGVSLNGGFETDLPVYDPFNTDDLDEMLERAMVW,soluble
7,SLKEVLESKLNDRPDANVLIGLGRNISGEAVLAELNKMPHLLVAGATGSGKSVCVNGIITSILMRAKPHEVKMMMIDPKMVELNVYNGIPHLLAPVVTDPKKASQALKKVVNEMERRYELFSHTGTRNIEGYNDYIKRANNEEGAKQPELPYIVVIVDELADLMMVASSDVEDSITRLSQMARAAGIHLIIATQRPSV,not soluble
8,MIKDLVRPELQKLVPYVSHQVPYRIKLDANESPFELPESIRKKLADYFLKGPGLNIYPDNESVELRKTIAKYWNVDADEVIVGTGSNQLIQLIITVFVGKGEKVLYPWPTFSMYKINTLIAGGEPVAFPLDKEKDFVLDTDKFIEAVKTENAKVVFLCNPNNPTGGLVPLEHIEKIVKECKSSIIVVDEAYAEFCPQSVIPLVKKYENLVVLRTFSKAYLLAGARCGYSISGIEIANEINKVRPTYNVSSLTQLIAKMVFEEQEEMQKMIRYLIEQRGELEKSLKKIKDVCIYPSHANYILVKVPEAEMISKELQKRGILIRSFPNDPVLYDCIRITVGTKEQNDIFLEEFSDIINNF,not soluble
9,GAMEAIYAYEAQGDDEISIDPGDIITVIRGDDGSGWTYGECDGLKGLFPTSYCK,soluble
10,MTAEHSWRLCLMALAFEDQLAGLDLGKVLRMCVVHDLGEAIHGDIPAVEQAAHPDKGEQERADLLQLTRHLDAPLRDRLLALWDEYERGESAEALAVKALDKLETL,soluble
11,MGSDKIHHHHHHMSQLVRPTLELPAGRRKVLLHSCCAPCSGEVMEAMTASGIDYAIYFYNPNIHPVKEYEIRKNENIRFAEEHGIEFIDADYDMDNWFERVKGMENEPERGIRCTACFDMRFERTALYAHEHGFDTITSSLGISRWKDMNQINGCGERAAARYDDLVYWTYNWRKGGGSQRMIEISKRENFYQQEYCGCVYSLRDTNRHRRAQGRERIHLGVKFYGVEEKL,not soluble
12,EEKLVKIAGFGGQGVLSMGLTLAEAACRDQKYVSWYPSYGPEQRGGTSNCSVIISGHEIGSPVVYSPGVLIALNKPSLENFAKDVKTGGTIIYDENIGDFEIPNGVTAIKVPASKIATEMGVSRAANTVMLGVLSALGYTGLSESVFVGAIEQTFSKKPKLIPINVEILNAGISWAKE,not soluble
13,MGSDKIHHHHHHVHLTYENTNEEIIAVKRKPRHQPPHLHNAMEIVCVTKGTLELGVGQELYHMETGDIGVVFPDVIHHYQVFSSEVNEAVFINAPQMIFGRFENVLRNNAPQYPVVKSDVIPDEVYRAVESIIDTGQNDIWVVQAYLQIILARCIPMMKLVEKSKIGSDDIIYRTVSYISANFNKSISLDGMAHDLGVSKFSLSRLFSKTFHSSFNQYVNEARLGYACQRIETTDDTLTEISMDSGFGSLRTFNRVFKEKYRLTPSEYRNKLQI,not soluble
14,MAANSLPTNVASPVQTTTPTTDKRSIGFIDRQLGTNPAELPPLPYGYDALEKAIDAETMKLHHDKHHAAYVNNLNNALKKHPELQNSSVEALLRDLNSVPEDIRTTVRNNGGGHLNHTIFWQIMSPDGGGQPTGDIAQEINQTFGSFEEFKKQFNQAGGDRFGSGWVWLVRNPQGQLQVVSTPNQDNPIMEGSYPIMGNDVWEHAYYLRYQNRRPEYLNNWWNVVNWSEINRRTQASRQSNSHHHHHH,soluble
15,MGHHHHHHSHPQDNDFLSRKAQDCYFMKLHHCPGNHSWDSTISGSQRAAFCDHKTTPCSSAIINPLSTAGNSERLQPGIAQQWIQSKREDIVNQMTEACLNQSLDALLSRDLIMKEDYELVSTKPTRTSKVRQLLDTTDIQGEEFAKVIVQKLKDNKQMGLQPYPEILVVSRSPSLNLLQNKSM,not soluble
16,ILLLLLSLFLGLSSQAQEDSLQANRYVMRATLYGAGFTNILDTYLSPMEYTGPEIRILRESMRMTKLMNGNVSVQSLFQANLSLTENKAETSNEMAGMVNWNYALHYQFRLTENLKILAGPMLDLNGGFIYNMRNSNNPAQAKAYVNLAASGMVIYRFHIGNYPLIARYQANLPVMGIMFSPEYGQSYYEIFSLKNGGKNVLFTSLHNQPSLRQLVTLDFPIRSVNMRFGYLCDIQQAKVNNLKSHIWSHAFMIGFVKNFYLLKGKNKVAMPSRVSPY,not soluble
